Laboratory results: paper PMC9692514, “Identification of a Novel p53 Modulator Endowed with Antitumoural and Antibacterial Activity through a Scaffold Repurposing Approach” (Pharmaceuticals, 2022)

Biological target: T1, recombinant human His-tagged p53 protein (residues 1–312) (human, UniProt P04637 1-312)
T1 construct: p53, human, residues 1-312; source: final dialysis with 0.2 mM ZnCl2
Assay: NMR antagonist-induced dissociation assay (AIDA), 1D proton spectra; Trp NHε side-chain signals of the MDM2–p53 complex; 0.1 mM proteins, 25 °C, 20 mM Tris-HCl, 150 mM KCl, pH 7.4, 5 mM β-mercaptoethanol, 0.02% NaN3; also after RM37 (0.2 mM)
Details: both partners purified

T1 sequence (P04637 1-312): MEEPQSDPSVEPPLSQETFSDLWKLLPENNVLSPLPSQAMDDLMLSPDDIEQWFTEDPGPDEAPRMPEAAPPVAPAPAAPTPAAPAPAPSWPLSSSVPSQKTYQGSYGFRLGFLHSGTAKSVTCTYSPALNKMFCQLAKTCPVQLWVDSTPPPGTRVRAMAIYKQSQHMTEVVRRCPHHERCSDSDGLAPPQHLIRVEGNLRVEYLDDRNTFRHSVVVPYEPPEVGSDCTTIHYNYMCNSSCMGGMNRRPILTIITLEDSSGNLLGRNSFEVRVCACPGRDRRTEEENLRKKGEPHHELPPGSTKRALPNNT

B1: recombinant human His-tagged N-terminal region of MDM2 (residues 1–118) (domain or fragment, UniProt Q00987 1-118, looked up)
chain: MCNTNMSVPTDGAVTTSQIPASEQETLVRPKPLLLKLLKSVGAQKDTYTMKEVLFYLGQYIMTKRLYDEKQQHIVYCSNDLLGDLFGVPSFSVKEHRKIYTMIYRNLVVVNQQESSDS
notes: MDM2 (HDM2), human, N-terminal region, residues 1-118; Cloned in a derivative of the vector pET-46Ek/LIC (Novagen); that vector probably adds the His tag at the N-terminus (surmised); No cleavage of the tag is told; also called HDM2
binding result: binds
